Assay results reported in US11517583B2, “Trans-splicing RNA (tsRNA)” (NATIONAL UNIVERSITY OF SINGAPORE, priority 2016, dated 2022).

What was measured:
[1] = system: AFP pre-mRNA (AFP_E3-E6 mini-gene); assay: real-time RT-PCR (TaqMan) quantification of trans-splicing towards over-expressed AFP mini-gene in HepG2 cells; format: cell-based, human; details: 3′ER, HepG2 co-transfected with AFP mini-gene vector, 24 hours post transfection
Experimental: Transfection of plasmid DNAs: HepG2 cells were transfected at ˜70-90% confluency in a 6-well plate for Western blotting, 12-well for FACS analyses and 24-well plate for all other analyses using either Lipofectamine 3000 (for FACS studies only) or Lipofectamine 2000, (Life Technologies) according to manufacturer's protocol. A total of 1 μg DNA was co-transfected or transfected in a 24-well plate format (500 ng:500 ng of ts construct: AFP_E3_E6 minigene) in over-expression studies and 1 μg of ts constructs only in endogenous studies. For 12-well and 6-well formats, the amount of total DNA was scaled up to 2 μg and 4 μg respectively. For FACS experiments, either 500 ng of pEGFP-C2 plasmid was co-transfected along with the ts and AFP mini-gene vectors to perform experiments with some 3′ER and 5′ER plasmids and dumbbells, or the GFP infused ts vectors were used along with/without AFP mini-gene for over-expression and endogenous studies respectively.
Total RNA Isolation: RNA was isolated 24 hours post-transfection using RNeasy plus kit (Qiagen) following the manufacturer's protocol. RNA concentrations were measured using NanoDrop 2000.
cDNA conversion and real-time RT-PCR: 500 ng RNA from all samples was converted into cDNA using the First Strand SuperScript RTIII (Invitrogen) kit with 200 ng of random hexamers and 10 uM of dNTPs. The reaction conditions were 25° C. for 5 min, followed by 50° C. for 2 h and enzyme inactivation at 70° C. for 15 min. 20 ng of cDNA was used as template for real time RT-PCR. TaqMan quantification was performed in ABI 7900HT of the cDNAs by designing specific probe and primer sets for each cis- and trans-splicing detection. One set of probes were designed in the AFP regions; namely AFP probe exon 5 and AFP probe exon 4 to detect 3′ER and 5′ER cis and trans-splicing respectively. Primers to detect 3′ER cis-splicing along with AFP probe were FP afp exon 5 (set1) and RP afp exon 6 and for 3′ER trans-splicing were FP afp exon 5 (set1) and RP HSVtk. Primers to detect 5′ER cis-splicing along with AFP probe were FP afp exon 3 and RP afp exon 4 (set1) and for 5′ER trans-splicing were FP HSVtk (set1) and RP afp exon 4 (set1). Another set of probes were designed in the distal HSVtk region to detect 3′ER, named HSVtk probe for 3′ER and proximal HSVtk region to detect 5′ER, named HSVtk probe for 5′ER trans-splicing alone. The primers to detect 3′ER trans-splicing along with HSVtk probes were FP afp exon 5 (set2) and RP HSVtk. Primers to detect 5′ER trans-splicing along with HSVtk probes were FP HSVtk (set2) and RP afp exon 4 (set2). The number of cycles in over-expression studies and endogenous studies were 40 and 50 respectively. RT-PCR: Reverse transcription PCR was performed on the cDNA samples using Taq DNA polymerase (Fermentas) with […] of two-step PCR (30+30 cycles or 35+35 cycles) to detect 3′ and 5′ cis and trans-splicing and the bands were visualized on a 1% agarose gel. The primers used to detect 3′ER cis-splicing and mock were FP afp exon 5 (set1) and RP afp exon 6, to detect 3′ER trans-splicing were FP afp exon 5 (set1) and RP HSVtk. To detect 5′ER cis-splicing and mock were primers FP afp exon 3 and RP afp exon 4 (set1), to detect 5′ER trans-splicing were primers FP HSVtk (set1) and RP afp exon 4 (set1). […]

[2] = system: HHRz cleavage motif at tsRNA 3′ end; assay: stem-loop primer based rt-RT-PCR of hammerhead ribozyme (HHRz) cleavage; format: cell-based
From the text: FIG. 3 Improved stability at 3′ end of the RNA improves 5′ trans-splicing in correlation with cleavage of hammerhead ribozyme. […] 145. The conserved motifs of stem Ia, Ib and II are highlighted in boxes and stem Ill is designed as a perfect complement to the 3′ end of the ΔBD to make the HH Rz structure. Cleavage motif GUC is shown with a scissor icon. […] R2, correlation coefficient. n=3, linear regression analysis.
That was surprising as the uncleaved RNA comprises a polyA tail and is expected to be exported to the cytoplasm thereby lowering its nuclear concentration and the rate of trans-splicing. We investigated HHRz cleavage by quantifying the cleaved RNA 3′ end using stem-loop primer based rt-RT-PCR (FIG. 3a). This method was proven to efficiently discriminate between perfect primer-matching and extended RNA 3′ ends. The observed 6.2 cycle difference indicated a ribozyme cleavage rate above 90% yielding trans-splicing RNA with an unstructured 3′ terminal BD (FIG. 3a). Unstructured ends of antisense RNA have been reported to be associated with both fast target binding and degradation. […]

B1: 3ER_ΔBD-opt: parental 3′ exon replacement tsRNA construct; unstructured 50 base BD to AFP intron 5 with two mismatches, HSVtk (nucleic acid)
DNA: GCTAGCACCTCTCTAAACCTAAATTAAATTTTCTTCTCTAAACCTCTTTCCTAGTTGGACTGACGTCACTCAGTCCTCCTCCTCAGC
- more potent (trans-splicing) than 3ER_BD-struc1 [1]: 4 fold
- stronger trans-splicing compared with 3ER_ΔBD-opt-inv [1]: 3 fold
- more potent (trans-splicing) than 3ER_BD-struc2 ([1]; p=0.04): 6 fold
- stronger trans-splicing compared with 3ER_BD-opt ([1]; p=0.04): 4 fold
- stronger trans-splicing compared with 3ER_BD-opt-inv ([1]; p=0.04): 30 fold

B2: p5ER_ΔBD-opt_HH: parental 5′ exon replacement tsRNA construct; unstructured mismatched BD to AFP intron 3, HSVtk, active hammerhead ribozyme (nucleic acid)
DNA: GGTACCCCTCCTTCCTCCTCCTCCTCCTCCTCCTCCTATATACATATACACACACACACACACTCATACCACATTTCAGACATAAAT
- ribozyme cleavage rate ([2]; indicated by the cycle difference): above 90%
- cycle difference, cleaved RNA 3′ end (active versus inactive HHRz motif) ([2]; stem-loop primer rt-RT-PCR): 6.2 cycle
